Patent publication US20090252683A1 (Amgen, published 2009)

B1: SEQ ID NO. 170 × EGFR LH (bispecific antibody)
chain: EVQLVESGGGLVQPGGSLKLSCAASGFTFNTYAMNWVRQAPGKGLEWVARIRSKYNNYATYYADSVKDRFTISRDDSKNTAYLQMNNLKTEDTAVYYCVRHGNFGNSYVSWFAYWGQGTLVTVSSGGGGSGGGGSGGGGSQTVVTQEPSLTVSPGGTVTLTCRSSTGAVTTSNYANWVQQKPGQAPRGLIGGTNKRAPGTPARFSGSLLGGKAALTLSGVQPEDEAEYYCALWYSNLWVFGGGTKLTVLSGGGGSDIVLTQSPASLPVSLGQRATISCRASQSVSSSTYSYIHWYQQKPGQPPKLLITYASNLESGVPARFSGSGSGTDFTLDIHPVEEDDSSTYYCQHSWEIPFTFGSGTKLEIKGGGGSGGGGSGGGGSQVQLQQSGPDLVKPGASVKMSCKASGHTFTDCVIIWVKQRAGQGLEWIGQIYPGTGRSYYNEIFKGKATLTADKSSNTVHIQLSSLTSEDSAVYFCALSTLIHGTWFSYWGQGTLVTVSSHHHHHH
notes: 184 as EGFR LH; the appendix heads it EGFR HL; ends with HHHHHH and *VD in the appendix
B2: SEQ ID NO. 194 × EGFR LH (bispecific antibody)
chain: QTVVTQEPSLTVSPGGTVTLTCRSSTGAVTTSNYANWVQQKPGQAPRGLIGGTNKRAPGTPARFSGSLLGGKAALTLSGVQPEDEAEYYCALWYSNLWVFGGGTKLTVLGGGGSGGGGSGGGGSEVQLVESGGGLVQPGGSLKLSCAASGFTFNTYAMNWVRQAPGKGLEWVARIRSKYNNYATYYADSVKDRFTISRDDSKNTAYLQMNNLKTEDTAVYYCVRHGNFGNSYVSWFAYWGQGTLVTVSSSGGGGSDIVLTQSPASLPVSLGQRATISCRASQSVSSSTYSYIHWYQQKPGQPPKLLITYASNLESGVPARFSGSGSGTDFTLDIHPVEEDDSSTYYCQHSWEIPFTFGSGTKLEIKGGGGSGGGGSGGGGSQVQLQQSGPDLVKPGASVKMSCKASGHTFTDCVIIWVKQRAGQGLEWIGQIYPGTGRSYYNEIFKGKATLTADKSSNTVHIQLSSLTSEDSAVYFCALSTLIHGTWFSYWGQGTLVTVSSHHHHHH
notes: 186 as EGFR LH; the appendix heads it EGFR HL; ends with HHHHHH and *VD in the appendix
B3: SEQ ID NO. 170 × EGFR HL (bispecific antibody)
chain: EVQLVESGGGLVQPGGSLKLSCAASGFTFNTYAMNWVRQAPGKGLEWVARIRSKYNNYATYYADSVKDRFTISRDDSKNTAYLQMNNLKTEDTAVYYCVRHGNFGNSYVSWFAYWGQGTLVTVSSGGGGSGGGGSGGGGSQTVVTQEPSLTVSPGGTVTLTCRSSTGAVTTSNYANWVQQKPGQAPRGLIGGTNKRAPGTPARFSGSLLGGKAALTLSGVQPEDEAEYYCALWYSNLWVFGGGTKLTVLSGGGGSQVQLQQSGPDLVKPGASVKMSCKASGHTFTDCVIIWVKQRAGQGLEWIGQIYPGTGRSYYNEIFKGKATLTADKSSNTVHIQLSSLTSEDSAVYFCALSTLIHGTWFSYWGQGTLVTVSSGGGGSGGGGSGGGGSDIVLTQSPASLPVSLGQRATISCRASQSVSSSTYSYIHWYQQKPGQPPKLLITYASNLESGVPARFSGSGSGTDFTLDIHPVEEDDSSTYYCQHSWEIPFTFGSGTKLEIKHHHHHH
notes: the appendix prints the entry with HHHHHH and then *VD at its end
B4: EGFR LH × SEQ ID NO. 194 (bispecific antibody)
chain: DIVLTQSPASLPVSLGQRATISCRASQSVSSSTYSYIHWYQQKPGQPPKLLITYASNLESGVPARFSGSGSGTDFTLDIHPVEEDDSSTYYCQHSWEIPFTFGSGTKLEIKGGGGSGGGGSGGGGSQVQLQQSGPDLVKPGASVKMSCKASGHTFTDCVIIWVKQRAGQGLEWIGQIYPGTGRSYYNEIFKGKATLTADKSSNTVHIQLSSLTSEDSAVYFCALSTLIHGTWFSYWGQGTLVTVSSSGGGGSQTVVTQEPSLTVSPGGTVTLTCRSSTGAVTTSNYANWVQQKPGQAPRGLIGGTNKRAPGTPARFSGSLLGGKAALTLSGVQPEDEAEYYCALWYSNLWVFGGGTKLTVLGGGGSGGGGSGGGGSEVQLVESGGGLVQPGGSLKLSCAASGFTFNTYAMNWVRQAPGKGLEWVARIRSKYNNYATYYADSVKDRFTISRDDSKNTAYLQMNNLKTEDTAVYYCVRHGNFGNSYVSWFAYWGQGTLVTVSSHHHHHH
notes: as for B3
B5: EGFR LH × SEQ ID NO. 170 (bispecific antibody)
chain: DIVLTQSPASLPVSLGQRATISCRASQSVSSSTYSYIHWYQQKPGQPPKLLITYASNLESGVPARFSGSGSGTDFTLDIHPVEEDDSSTYYCQHSWEIPFTFGSGTKLEIKGGGGSGGGGSGGGGSQVQLQQSGPDLVKPGASVKMSCKASGHTFTDCVIIWVKQRAGQGLEWIGQIYPGTGRSYYNEIFKGKATLTADKSSNTVHIQLSSLTSEDSAVYFCALSTLIHGTWFSYWGQGTLVTVSSGGGGSEVQLVESGGGLVQPGGSLKLSCAASGFTFNTYAMNWVRQAPGKGLEWVARIRSKYNNYATYYADSVKDRFTISRDDSKNTAYLQMNNLKTEDTAVYYCVRHGNFGNSYVSWFAYWGQGTLVTVSSGGGGSGGGGSGGGGSQTVVTQEPSLTVSPGGTVTLTCRSSTGAVTTSNYANWVQQKPGQAPRGLIGGTNKRAPGTPARFSGSLLGGKAALTLSGVQPEDEAEYYCALWYSNLWVFGGGTKLTVLHHHHHH
notes: as for B3
B6: SEQ ID NO. 194 × EGFR HL (bispecific antibody)
chain: QTVVTQEPSLTVSPGGTVTLTCRSSTGAVTTSNYANWVQQKPGQAPRGLIGGTNKRAPGTPARFSGSLLGGKAALTLSGVQPEDEAEYYCALWYSNLWVFGGGTKLTVLGGGGSGGGGSGGGGSEVQLVESGGGLVQPGGSLKLSCAASGFTFNTYAMNWVRQAPGKGLEWVARIRSKYNNYATYYADSVKDRFTISRDDSKNTAYLQMNNLKTEDTAVYYCVRHGNFGNSYVSWFAYWGQGTLVTVSSSGGGGSQVQLQQSGPDLVKPGASVKMSCKASGHTFTDCVIIWVKQRAGQGLEWIGQIYPGTGRSYYNEIFKGKATLTADKSSNTVHIQLSSLTSEDSAVYFCALSTLIHGTWFSYWGQGTLVTVSSGGGGSGGGGSGGGGSDIVLTQSPASLPVSLGQRATISCRASQSVSSSTYSYIHWYQQKPGQPPKLLITYASNLESGVPARFSGSGSGTDFTLDIHPVEEDDSSTYYCQHSWEIPFTFGSGTKLEIKHHHHHH
notes: as for B3
B7: EGFR HL × SEQ ID NO. 170 (bispecific antibody)
chain: QVQLQQSGPDLVKPGASVKMSCKASGHTFTDCVIIWVKQRAGQGLEWIGQIYPGTGRSYYNEIFKGKATLTADKSSNTVHIQLSSLTSEDSAVYFCALSTLIHGTWFSYWGQGTLVTVSSGGGGSGGGGSGGGGSDIVLTQSPASLPVSLGQRATISCRASQSVSSSTYSYIHWYQQKPGQPPKLLITYASNLESGVPARFSGSGSGTDFTLDIHPVEEDDSSTYYCQHSWEIPFTFGSGTKLEIKSGGGGSEVQLVESGGGLVQPGGSLKLSCAASGFTFNTYAMNWVRQAPGKGLEWVARIRSKYNNYATYYADSVKDRFTISRDDSKNTAYLQMNNLKTEDTAVYYCVRHGNFGNSYVSWFAYWGQGTLVTVSSGGGGSGGGGSGGGGSQTVVTQEPSLTVSPGGTVTLTCRSSTGAVTTSNYANWVQQKPGQAPRGLIGGTNKRAPGTPARFSGSLLGGKAALTLSGVQPEDEAEYYCALWYSNLWVFGGGTKLTVLHHHHHH
notes: the appendix prints the entry with HHHHHH and then *VD (stop and vector residues) at its end
B8: EGFR HL × SEQ ID NO. 194 (bispecific antibody)
chain: QVQLQQSGPDLVKPGASVKMSCKASGHTFTDCVIIWVKQRAGQGLEWIGQIYPGTGRSYYNEIFKGKATLTADKSSNTVHIQLSSLTSEDSAVYFCALSTLIHGTWFSYWGQGTLVTVSSGGGGSGGGGSGGGGSDIVLTQSPASLPVSLGQRATISCRASQSVSSSTYSYIHWYQQKPGQPPKLLITYASNLESGVPARFSGSGSGTDFTLDIHPVEEDDSSTYYCQHSWEIPFTFGSGTKLEIKSGGGGSQTVVTQEPSLTVSPGGTVTLTCRSSTGAVTTSNYANWVQQKPGQAPRGLIGGTNKRAPGTPARFSGSLLGGKAALTLSGVQPEDEAEYYCALWYSNLWVFGGGTKLTVLGGGGSGGGGSGGGGSEVQLVESGGGLVQPGGSLKLSCAASGFTFNTYAMNWVRQAPGKGLEWVARIRSKYNNYATYYADSVKDRFTISRDDSKNTAYLQMNNLKTEDTAVYYCVRHGNFGNSYVSWFAYWGQGTLVTVSSHHHHHH
notes: as for B3

molecular target: T1, human EGFR on A431 cells (human, UniProt P00533 25-1210); assay: FACS, A431 cells, 1 µg/ml purified protein, anti-His detection
T1 construct: whole, on cells
Method: In order to test the functionality of the cross-species specific bispecific antibody constructs with regard to binding capability to human and cynomolgus EGFR and CD3, respectively, a FACS analysis was performed. For this purpose the EGFR positive epidermoid carcinoma A431 cells (ATCC, CRL-1555) and CD3 positive human T cell leukemia cell line HPB-ALL (DSMZ, Braunschweig, ACC483) were used to check the binding to human antigens. The binding reactivity to cynomolgus antigens was tested by using the generated cynomolgus EGFR transfectants described in Example 20 and cynomolgus PBMCs which were obtained by Ficoll density gradient centrifugation. 200,000 cells of the respective cell population were incubated for 30 min on ice with 50 μl of the purified protein of the cross-species specific bispecific antibody constructs (1 μg/ml). The cells were washed twice in PBS and binding of the construct was detected with an unlabeled murine Penta His antibody (diluted 1:20 in 50 μl PBS with 2% FCS; Qiagen; Order No. 34660). After washing, bound anti His antibodies were detected with an Fc gamma-specific antibody (Dianova) conjugated to phycoerythrin, diluted 1:100 in 50 μl PBS with 2% FCS. Fresh culture medium was used as a negative control.
Cells were analyzed by flow cytometry on a FACS-Calibur apparatus (Becton Dickinson, Heidelberg). FACS staining and measuring of the fluorescence intensity were performed as described in Current Protocols in Immunology (Coligan, Kruisbeek, Margulies, Shevach and Strober, Wiley-Interscience, 2002).

| binding result | Binder |
| --- | --- |
| binds | B1 |
| binds | B2 |
| binds | B3 |
| binds | B4 |
| binds | B5 |
| binds | B6 |
| binds | B7 |
| binds | B8 |
